This passage reports response results from publication PMC7408665.

The assay concerns the target anti-E7 mAb. Briefly: ELISA. The conditions noted are these: read off a plot.
In turn, “recombinant His-E7 protein of HPV16 (from UniProt P03129) C24P” returned a response of 1.3 OD450.

For “recombinant His-E7 protein of HPV16 (from UniProt P03129) D36H”, the response was determined as 1.3 OD450.

Take “recombinant His-E7 protein of HPV16 (from UniProt P03129) E10Q”: the response is 1.1 OD450.

Turning to “recombinant His-E7 protein of HPV16 (from UniProt P03129) E18Q”, the response stood at 1 OD450.

The substance “recombinant His-E7 protein of HPV16 (from UniProt P03129) L22A” yielded a response of 1 OD450.
